From patent US20210046181A1 (VALITOR, published 2021)

T1: mouse TNFα (mouse, UniProt P06804 80-235)
T1 sequence (looked up): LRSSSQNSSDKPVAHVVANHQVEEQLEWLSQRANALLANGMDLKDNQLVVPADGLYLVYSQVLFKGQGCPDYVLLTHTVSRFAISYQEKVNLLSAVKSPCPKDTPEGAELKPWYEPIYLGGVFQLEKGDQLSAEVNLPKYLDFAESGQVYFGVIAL


Assays:
IL-1β = experiment: BLI (ForteBio Octet Red), target adsorbed on the probe
mouse TNFα [1] = molecular target: T1, mouse TNFα; experiment: cell-based or functional assay
mouse TNFα [2] = molecular target: T1, mouse TNFα; experiment: BLI (ForteBio Octet Red), target adsorbed on the probe

Sequence of IL-1β (P01584 117-269): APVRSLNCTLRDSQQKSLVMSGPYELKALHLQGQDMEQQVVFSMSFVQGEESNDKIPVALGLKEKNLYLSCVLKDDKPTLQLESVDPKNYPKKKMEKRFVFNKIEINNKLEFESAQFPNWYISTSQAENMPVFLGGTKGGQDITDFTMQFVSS

| Binder | Kd (IL-1β) [pM] | IC50 (nM), Bioactivity Data; assay not given, the filing describes IC50 from the L929 fibroblast cell survival assay with TNFα (mouse TNFα [1]) [nM] | Kd (mouse TNFα [2]) [pM] |
| --- | --- | --- | --- |
| (anti-IL-1β scFv antibody-EMCH)15-HyA (2000 kDa) (scFv, engineered cysteine thiol linked through EMCH (maleimide) to hyaluronic acid (HyA, 2000 kDa)) scFv: SNAEIVMTQSPSTLSASVGDRVIITCQASQSIDNWLSWYQQKPGKAPKLLIYRASTLASGVPSRFSGSGSGAEFTLTISSLQPDDFATYYCQNTGGGVSIAFGQGTKLTVLGGGGGSGGGGSGGGGSGGGGSEVQLVESGGGLVQPGGSLRLSCTASGFSLSSAAMAWVRQAPGKGLEWVGIIYDSASTYYASWAKGRFTISRDTSKNTVYLQMNSLRAEDTAVYYCARERAIFSGDFVLWGQGTLVTVSSSPSTPPTPSPSTPPGGC | 840 | – | – |
| (anti-IL-1β scFv antibody-EMCH)-CMC (700 kDa) (scFv, engineered cysteine thiol linked through EMCH (maleimide) to carboxymethyl cellulose (CMC, 700 kDa)) scFv: SNAEIVMTQSPSTLSASVGDRVIITCQASQSIDNWLSWYQQKPGKAPKLLIYRASTLASGVPSRFSGSGSGAEFTLTISSLQPDDFATYYCQNTGGGVSIAFGQGTKLTVLGGGGGSGGGGSGGGGSGGGGSEVQLVESGGGLVQPGGSLRLSCTASGFSLSSAAMAWVRQAPGKGLEWVGIIYDSASTYYASWAKGRFTISRDTSKNTVYLQMNSLRAEDTAVYYCARERAIFSGDFVLWGQGTLVTVSSSPSTPPTPSPSTPPGGC | 20 | – | – |
| (anti-(mouse)TNFα VHH antibody-EMCH)273-HyA (2000 kDa) (VHH, engineered cysteine thiol linked through EMCH (maleimide) to hyaluronic acid (HyA, 2000 kDa), Multivalent peptide-polymer conjugate: about 273 VHH per HyA chain) VHH: QVQLQDSGGGLVQAGGSLRLSCAASGGTFSSIIMAWFRQAPGKEREFVGAVSWSGGTTVYADSVLGRFEISRDSARKSVYLQMNSLKPEDTAVYYCAARPYQKYNWASASYNVWGQGTQVTVSS | – | 120 | 170 |
